Values of other authors, collected in PMC2652713, “Molecular Blocking of CD23 Supports Its Role in the Pathogenesis of Arthritis” (PLoS ONE, 2009).

System: human macrophages and epithelial cells
From the text: Authors reported overexpression of membrane bound and sCD23 during acute juvenile or adult arthritis, with a clear pro-inflammatory property in this form. In the present study, we report similar observations in peripheral and synovial liquid monocytes/macrophages from adult arthritic patients (Figure 5).

B1: IL-10: a well-known immunoregulator and Th-1 inhibitor cytokine (protein, UniProt P22301 19-178, looked up)
Interleukin-10: SPGQGTQSENSCTHFPGNLPNMLRDLRDAFSRVKTFFQMKDQLDNLLLKESLLEDFKGYLGCQALSEMIQFYLEEVMPQAENQDPDIKAHVNSLGENLKTLRLRLRRCHRFLPCENKSKAVEQVKNAFNKLQEKGIYKAMSEFDIFINYIEAYMTMKIRN
CD23-mediated TNF-α production: decreased | CD23-mediated nitric oxide production: decreased
